Reference: paper PMC8162731

Test system: CC(C)(O)[C@@H](O)C(=O)O
Test: purified protein
Assay type: biochemical, Synechocystis sp. PCC 6803
Conditions: aerobic

Row | Substance | Km (as-purified enzyme 0.05 μM, pH 8.0, 50 °C) [µM] | Km (as-purified enzyme) [µM]
1 | SnDHAD (Synechocystis sp. PCC 6803 substr. Kazusa) | 136.3 ± 9.0 | –
2 | SnDHAD (Synechocystis sp. PCC 6803 substr. Kazusa; Y477H) | – | 108.9 ± 10.7
